{
  "source": "paper PMC8858996",
  "about": "(iScience, 2022)",
  "key": {"CGA-WLA-YR dimer (N-ter)": {"target": "CGA-WLA-YR dimer (N-ter)", "assay": "ITC"}, "[1]": {"target": "EphA2 WT tagged at the C-terminus with mTURQ or EYFP (UniProt P29317)"}, "dimer (4)": {"target": "dimer (4)", "assay": "ITC"}, "CGA-WLA-YRPK dimer (5)": {"target": "CGA-WLA-YRPK dimer (5)", "assay": "ITC"}, "FRET or BRET": {"target": "the molecule itself", "assay": "FRET or BRET"}},
  "data": [
    {"molecule": "human EphA2 ligand-binding domain (residues 28-200) (from UniProt P29317 28-200) (domain or fragment)", "values": [
      {"measurement": "stoichiometry N", "setting": "CGA-WLA-YR dimer (N-ter)", "result": 2}
    ]},
    {"molecule": "ephrinA1-Fc (ephrinA1 extracellular region fused to the dimeric Fc portion of an antibody) (Fc fusion)", "values": [
      {"measurement": "EC50 of EphA2 autophosphorylation on Y588, endogenous EphA2 in PC3 cells, 15 min", "setting": "[1]", "result": 3.8, "unit": "nM"}
    ]},
    {"molecule": "human EphA2 LBD (residues 28–200) (from UniProt P29317 28-200) (domain or fragment)", "values": [
      {"measurement": "Kd", "setting": "dimer (4)", "result": 104, "unit": "nM"},
      {"measurement": "stoichiometry N (EphA2 LBD per peptide)", "setting": "dimer (4)", "result": 2},
      {"measurement": "Kd", "setting": "CGA-WLA-YRPK dimer (5)", "result": 21, "unit": "nM"}
    ]},
    {"molecule": "EphA2 L223R/L254R/V255R tagged at the C-terminus with mTURQ or EYFP (receptor) AQGKEVVLLDFAAAGGELGWLTHPYGKGWDLMQNIMNDMPIYMYSVCNVMSGDQDNWLRTNWVYRGEAERIFIELKFTVRDCNSFPGGASSCKETFNLYYAESDLDYGTNFQKRLFTKIDTIAPDEITVSSDFEARHVKLNVEERSVGPLTRKGFYLAFQDIGACVALLSVRVYYKKCPELLQGLAHFPETIAGSDAPSRATVAGTCVDHAVVPPGGEEPRMHCAVDGEWRRPIGQCLCQAGYEKVEDACQACSPGFFKFEASESPCLECPEHTLPSPEGATSCECEEGFFRAPQDPASMPCTRPPSAPHYLTAVGMGAKVELRWTPPQDSGGREDIVYSVTCEQCWPESGECGPCEASVRYSEPPHGLTRTSVTVSDLEPHMNYTFTVEARNGVSGLVTSRSFRTASVSINQTEPPKVRLEGRSTTSLSVSWSIPPPQQSRVWKYEVTYRKKGDSNSYNVRRTEGFSVTLDDLAPDTTYLVQVQALTQEGQGAGSKVHEFQTLSPEGSGNLAVIGGVAVGVVLLLVLAGVGFFIHRRRKNQRARQSPEDVYFSKSEQLKPLKTYVDPHTYEDPNQAVLKFTTEIHPSCVTRQKVIGAGEFGEVYKGMLKTSSGKKEVPVAIKTLKAGYTEKQRVDFLGEAGIMGQFSHHNIIRLEGVISKYKPMMIITEYMENGALDKFLREKDGEFSVLQLVGMLRGIAAGMKYLANMNYVHRDLAARNILVNSNLVCKVSDFGLSRVLEDDPEATYTTSGGKIPIRWTAPEAISYRKFTSASDVWSFGIVMWEVMTYGERPYWELSNHEVMKAINDGFRLPTPMDCPSAIYQLMMQCWQQERARRPKFADIVSILDKLIRAPDSLKTLADFDPRVSIRLPSTSGSEGVPFRTVSEWLESIKMQQYTEHFMAAGYTAIEKVVQMTNDDIKRIGVRLPGHQKRIAYSLLGLKDQVNTVGIPI", "values": [
      {"measurement": "stoichiometry N", "setting": "FRET or BRET", "result": 2}
    ]}
  ]
}
